Key:
[1] = molecular target: T1, BHK-mIL-27R cells (Mus musculus, UniProt O70394); assay: Competition binding against 125I-labeled A1426F; settings: 0.1 nM label; competitor 50 nM to 7.6 pM; 4 hours on ice
T1 construct: expressed in transfected cells; host or cells: BHK cells
T1 sequence (O70394 25-623): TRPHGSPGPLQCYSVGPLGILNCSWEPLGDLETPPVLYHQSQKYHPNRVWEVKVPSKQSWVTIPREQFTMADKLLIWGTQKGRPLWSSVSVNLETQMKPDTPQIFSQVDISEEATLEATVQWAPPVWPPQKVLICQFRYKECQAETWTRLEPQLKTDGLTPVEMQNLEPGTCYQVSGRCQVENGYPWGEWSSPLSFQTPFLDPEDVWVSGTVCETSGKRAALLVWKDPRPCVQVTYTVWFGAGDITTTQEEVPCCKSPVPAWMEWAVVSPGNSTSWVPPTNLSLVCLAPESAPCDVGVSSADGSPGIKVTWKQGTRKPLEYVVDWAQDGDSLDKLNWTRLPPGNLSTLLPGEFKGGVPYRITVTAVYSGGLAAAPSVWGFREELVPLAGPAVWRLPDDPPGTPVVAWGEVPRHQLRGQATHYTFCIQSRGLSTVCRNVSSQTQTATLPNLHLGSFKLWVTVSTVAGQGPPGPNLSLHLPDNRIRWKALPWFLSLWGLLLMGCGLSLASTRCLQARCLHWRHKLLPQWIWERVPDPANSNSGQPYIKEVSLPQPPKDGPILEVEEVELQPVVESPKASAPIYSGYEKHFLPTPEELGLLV
T1 sequence (Q00560 23-917 partner): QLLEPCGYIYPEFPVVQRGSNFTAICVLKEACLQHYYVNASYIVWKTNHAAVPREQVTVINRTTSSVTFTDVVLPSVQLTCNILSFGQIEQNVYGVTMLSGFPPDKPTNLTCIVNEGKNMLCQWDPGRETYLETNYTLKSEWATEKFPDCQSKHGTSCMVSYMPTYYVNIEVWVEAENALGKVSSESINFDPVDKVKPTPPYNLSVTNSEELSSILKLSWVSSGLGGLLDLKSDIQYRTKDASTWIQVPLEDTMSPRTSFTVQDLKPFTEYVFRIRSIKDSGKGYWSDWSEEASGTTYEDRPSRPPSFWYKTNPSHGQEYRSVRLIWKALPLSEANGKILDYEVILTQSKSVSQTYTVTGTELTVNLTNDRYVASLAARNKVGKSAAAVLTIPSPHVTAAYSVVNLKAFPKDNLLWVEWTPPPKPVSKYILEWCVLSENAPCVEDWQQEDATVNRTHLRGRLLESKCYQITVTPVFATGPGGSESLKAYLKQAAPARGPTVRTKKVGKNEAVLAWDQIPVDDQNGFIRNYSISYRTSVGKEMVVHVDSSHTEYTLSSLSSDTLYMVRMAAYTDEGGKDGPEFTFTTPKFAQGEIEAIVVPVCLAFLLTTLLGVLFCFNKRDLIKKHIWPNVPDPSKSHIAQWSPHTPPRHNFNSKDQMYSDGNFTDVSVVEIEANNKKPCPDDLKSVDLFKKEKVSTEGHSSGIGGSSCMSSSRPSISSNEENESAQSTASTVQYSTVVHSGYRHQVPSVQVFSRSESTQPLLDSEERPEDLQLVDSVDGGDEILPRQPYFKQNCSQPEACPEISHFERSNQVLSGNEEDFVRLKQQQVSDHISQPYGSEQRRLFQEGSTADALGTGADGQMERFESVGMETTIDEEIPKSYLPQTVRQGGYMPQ
Description: For competition binding studies, ^125I-labeled A1426F (0.1 nM) was added to preparations of unlabeled A1426F, mouse IL-27 p28 with a C-terminal polyhistidine tag (A1406F), or an unrelated control protein titered from 50 nM to 7.6 pM in 1:3 serial dilutions. These preparations were incubated with BHK-mIL-27R cells for 4 hours on ice. The cells were then washed three times with ice-cold binding buffer, then solublized with 1N NaOH. These lysates were then checked for bound A1426F by checking for radiation with a gamma counter.

[2] = molecular target: T2, huIL-27 (Homo sapiens, UniProt Q14213+Q8NEV9); assay: Phospho-STAT3 neutralization assay, mouse spleens, huIL-27; type: cell-based; settings: mouse spleens; phospho-STAT3; read-out: EC90 concentration
T2 sequence (Q14213 21-229): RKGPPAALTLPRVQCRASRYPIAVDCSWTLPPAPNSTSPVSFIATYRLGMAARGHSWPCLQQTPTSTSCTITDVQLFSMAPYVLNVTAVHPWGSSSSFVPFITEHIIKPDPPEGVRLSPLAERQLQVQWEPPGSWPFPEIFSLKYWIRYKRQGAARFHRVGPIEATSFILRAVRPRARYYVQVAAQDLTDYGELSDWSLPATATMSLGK
T2 sequence (Q8NEV9 29-243): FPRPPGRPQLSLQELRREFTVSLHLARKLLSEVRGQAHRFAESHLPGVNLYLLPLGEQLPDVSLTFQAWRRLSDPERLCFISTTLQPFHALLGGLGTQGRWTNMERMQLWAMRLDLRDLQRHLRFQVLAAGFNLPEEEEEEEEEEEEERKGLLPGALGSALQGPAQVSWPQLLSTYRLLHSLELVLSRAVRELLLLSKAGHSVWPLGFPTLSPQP
Text: (§1) Whole mouse spleens were harvested from C57 B1/6 mice and washed two times with 1×PBS before being plated out at 2×10^5 cells/well in assay media (RPMI 1640 plus 10% fetal bovine serum) in 96-well, round-bottom tissue culture plates. Total human PBMC (peripheral blood mononuclear cells) were thawed from a frozen vial collected from a leukapherisis donation and washed two times with 1×PBS before being plated out at 10^6 cells/well in assay media in 96-well, round-bottom tissue culture plates. […] Following pre-incubation, treatments were added to the plates containing the cells and incubated together at 37° C. for 15 minutes.
(§2) Following incubation, cells were washed with ice-cold wash buffer (BIO-PLEX Cell Lysis Kit, BIO-RAD Laboratories, Hercules, Calif.) and put on ice to stop the reaction according to manufacturer's instructions. […]
(§3) Capture beads (BIO-PLEX Phospho-Stat3 Assay, BIO-RAD Laboratories) were combined with 50 μL of 1:1 diluted lysates and added to a 96-well filter plate according to manufacture's instructions (BIO-PLEX Phosphoprotein Detection Kit, BIO-RAD Laboratories). […] After the final wash, beads were resuspended in 125 μL/well of bead suspension buffer, shaken for 30 seconds, and read on an array reader (BIO-PLEX, BIO-RAD Laboratories) according to the manufacture's instructions. Data were analyzed using analytical softward (BIO-PLEX MANAGER 3.0, BIO-RAD Laboratories). […]

[3] = molecular target: T2, huIL-27; assay: Phospho-STAT3 neutralization assay, total human PBMCs, huIL-27; type: cell-based; settings: total human PBMCs; phospho-STAT3; read-out: EC90 concentration
Text: as §1, §2, §3

Substance	competition with ^125I-labeled A1426F for binding [1]	EC90 [2]	EC90 [3]
A1406F: mouse IL-27 p28 with a C-terminal polyhistidine tag	unable to compete	–	–
huIL-27: human IL-27 ligand [reference compound]	–	2 nM	2 nM

Reference: US20100092465A1, “TREATMENT OF GRAFT-VERSUS-HOST DISEASE” (priority 2006, published 2010)
